Blank lines part the entries; values can stand above or below the binder they belong to.
Experiments:
Test in all cases: two-hybrid library CCNG1;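 note: natural log of median RNA to DNA barcode read ratio; higher means stronger binding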
[1] = target: T1, O13-bH
T1 chain: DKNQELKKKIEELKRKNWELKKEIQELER

[2] = target: T2, O5-bH
T2 chain: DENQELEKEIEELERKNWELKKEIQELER

[3] = target: T3, O8-bH
T3 chain: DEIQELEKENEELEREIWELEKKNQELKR

[4] = target: T4, O6-bH
T4 chain: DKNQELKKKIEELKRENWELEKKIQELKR

[5] = target: T5, O15-bH
T5 chain: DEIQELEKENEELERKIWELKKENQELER

[6] = target: T6, O16-bH
T6 chain: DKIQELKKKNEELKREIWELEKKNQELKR

[7] = target: T7, O2-bH
T7 chain: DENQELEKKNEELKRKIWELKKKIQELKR

[8] = target: T8, O9-bH
T8 chain: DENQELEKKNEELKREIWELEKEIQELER

[9] = target: T9, O7-bH
T9 chain: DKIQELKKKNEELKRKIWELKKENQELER

[10] = target: T10, O14-bH
T10 chain: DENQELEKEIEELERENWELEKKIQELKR

[11] = target: T11, O12-bH
T11 chain: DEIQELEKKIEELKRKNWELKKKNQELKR

[12] = target: T12, O3-bH
T12 chain: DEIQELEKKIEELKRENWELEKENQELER

[13] = target: T13, O4-bH
T13 chain: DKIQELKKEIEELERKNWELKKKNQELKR

[14] = target: T14, 4H2134-bA
T14 chain: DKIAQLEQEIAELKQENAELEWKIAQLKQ

[15] = target: T15, 4H3601-bA
T15 chain: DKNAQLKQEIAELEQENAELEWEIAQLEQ

[16] = target: T16, 4H4038-bA
T16 chain: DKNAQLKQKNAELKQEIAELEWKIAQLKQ

[17] = target: T17, 4H1406-bA
T17 chain: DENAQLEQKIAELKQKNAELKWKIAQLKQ

[18] = target: T18, 4H3907-bA
T18 chain: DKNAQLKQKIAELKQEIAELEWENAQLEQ

[19] = target: T19, 4H3592-bA
T19 chain: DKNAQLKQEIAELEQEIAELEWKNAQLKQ

[20] = target: T20, P8SH
T20 chain: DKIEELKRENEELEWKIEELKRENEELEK

[21] = target: T21, P7SH
T21 chain: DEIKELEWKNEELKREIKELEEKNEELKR

[22] = target: T22, P6SH
T22 chain: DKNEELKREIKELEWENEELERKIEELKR

interaction score [1]: 0.332 | interaction score [2]: -1.26 | interaction score [3]: 1.12 | interaction score [4]: 0.619 | interaction score [5]: 0.483 | interaction score [6]: -0.436 | interaction score [7]: -1.26 | interaction score [8]: 0.102 | interaction score [9]: -0.37 | interaction score [10]: -1.38 | interaction score [11]: 0.775 | interaction score [12]: 1.56 | interaction score [13]: 1.12
Binder: DEIQELEKKIEELKRKNWELKKKNQELKR [O12-bH]

interaction score [14]: 1.62 | interaction score [15]: 1.83 | interaction score [16]: -0.125 | interaction score [17]: -0.836 | interaction score [18]: 0.571 | interaction score [19]: 0.233
Binder: DENAQLEQKIAELKQKNAELKWKIAQLKQ [4H1406-bA]

interaction score [20]: 0.565 | interaction score [21]: 0.762 | interaction score [22]: 0.574
Binder: DKNEELKREIKELEWENEELERKIEELKR [P6SH]

— publication PMC10397247
